In patent US20150166668A1 (PROMIS NEUROSCIENCES, published 2015):

B1: DSE3 ab120 (antibody, V domains shown)
VH: QSVEESGGHLVTPGTPLTLTCTVSGIDLSTYAMGWVRQAPGKGLEWIGVITKSGNTYYASWAKGRFAISKTSTTVDLKITSPTTEDTATYFCGRYGIGVSYYDIWGPGTLVTVSS
VL: AQVLTQTPSPVSAAVGGTVTINCQSSQSLYNKNWLSWYQKKPGQPPKLLIYKASTLESGVSSRFKGSGSGTQFTLTISGVQCDDAATYYCQGEFSCSSADCTAFGGGTEVVVKG

Assays:
[1] = target: PrP on the surface of normal cells (human) (UniProt P04156); assay: flow cytometry on HOEpiC Donor 1 normal ovarian epithelium
[2] = target: PrP on the surface of normal cells (human) (UniProt P04156); assay: flow cytometry on HOEpiC Donor 3 normal ovarian epithelium
[3] = target: PrP on the surface of normal cells (human) (UniProt P04156)
[4] = target: PrP on the surface of normal cells (human) (UniProt P04156); assay: flow cytometry on HOEpiC Donor 2 normal ovarian epithelium
BSA-DSE3 peptide = target: T1, BSA-DSE3 peptide (human); assay: ELISA, plate coated with BSA-peptide
T1 construct: also called immunogen peptides; specific peptide

Molecule	Ave S/N [1]	Ave S/N [2]	EC50 [3] [nM]	Ave S/N [4]	EC50 (BSA-DSE3 peptide) [nM]
Anti-PrP 6H4 antibody	8.31	15.1	17	14.2	–
B1	–	–	–	–	0.0655
